Data taken from patent US20210388337A1, “PROTEIN-POLYMER CONJUGATES AND METHODS FOR THEIR PREPARATION” (Carnegie Mellon University, priority 2018, published 2021).

Target: Biotin-aprotinin (UniProt P00974)
Test: stopped-flow tryptophan fluorescence, avidin 0.5 µM, biotin-protein 5.0 µM

Chain of Native avidin (P02701 25-152 limits assumed): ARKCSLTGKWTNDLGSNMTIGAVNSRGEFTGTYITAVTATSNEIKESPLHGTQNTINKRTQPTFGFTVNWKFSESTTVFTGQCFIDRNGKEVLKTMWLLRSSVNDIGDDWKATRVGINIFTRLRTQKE

k (kobs, observed first-order rate constant): 73.5 s⁻¹
Substance: Native avidin (from UniProt P02701 25-152)
